Data reported in patent US20110045489A1, “Polymerases for Incorporating Modified Nucleotides” (NEW ENGLAND BIOLABS, INC., priority 2008, published 2011).
Substitutions are numbered along the chain they refer to. In names and notes the source's numbering stands.

B1: 9° N exo-L408S/P410V: 9° N DNA polymerase mutant (protein, UniProt Q56366 1-775, looked up, variant D141A E143A L408S P410V)
DNA polymerase: MILDTDYITENGKPVIRVFKKENGEFKIEYDRTFEPYFYALLKDDSAIEDVKKVTAKRHGTVVKVKRAEKVQKKFLGRPIEVWKLYFNHPQDVPAIRDRIRAHPAVVDIYEYDIPFAKRYLIDKGLIPMEGDEELTMLAFAIATLYHEGEEFGTGPILMISYADGSEARVITWKKIDLPYVDVVSTEKEMIKRFLRVVREKDPDVLITYNGDNFDFAYLKKRCEELGIKFTLGRDGSEPKIQRMGDRFAVEVKGRIHFDLYPVIRRTINLPTYTLEAVYEAVFGKPKEKVYAEEIAQAWESGEGLERVARYSMEDAKVTYELGREFFPMEAQLSRLIGQSLWDVSRSSTGNLVEWFLLRKAYKRNELAPNKPDERELARRRGGYAGGYVKEPERGLWDNIVYLDFRSSYVSIIITHNVSPDTLNREGCKEYDVAPEVGHKFCKDFPGFIPSLLGDLLEERQKIKRKMKATVDPLEKKLLDYRQRAIKILANSFYGYYGYAKARWYCKECAESVTAWGREYIEMVIRELEEKFGFKVLYADTDGLHATIPGADAETVKKKAKEFLKYINPKLPGLLELEYEGFYVRGFFVTKKKYAVIDEEGKITTRGLEIVRRDWSEIAKETQARVLEAILKHGDVEEAVRIVKEVTEKLSKYEVPPEKLVIHEQITRDLRDYKATGPHVAVAKRLAARGVKIRPGTVISYIVLKGSGRIGDRAIPADEFDPTKHRYDAEYYIENQVLPAVERILKAFGYRKEDLRYQKTKQVGLGAWLKVKGKK
B2: 9° N exo-L408S/Y409A/P410V: 9° N DNA polymerase mutant (Therminator III™, NEB) (protein, UniProt Q56366 1-775, looked up, variant D141A E143A L408S Y409A P410V)
DNA polymerase: B1 DNA polymerase with Y409A

Experiments:
Format in all cases: biochemical
3′-azido-ddCTP [1] = assay: Titration assay for chain terminator incorporation efficiency (3′-azido-ddCTP); settings: 3′-azido-ddCTP:dNTP 10:1, 2.5:1, 1:2.5; FIG. 1
Description: FIG. 1A-1D show titration assays for chain terminator incorporation efficiency. The relative efficiency of incorporation of modified nucleotide terminators was assessed using the titration assay described in Gardner and Jack Nucleic Acids Research 30: 605-613 (2002). A dye-labeled oligonucleotide primer 5′-AGTGAATTCGAGCTCGGTACCCGGGGATCCTCTAGAGTCGACCTGCAGGC-3′ was annealed to a single-stranded M13mp18 DNA template (Accession No. X02513) and extended by a DNA polymerase in the presence of various ratios of 3′-azido-ddCTP:dNTP (10:1, 2.5:1, 1:2.5) or dNTP (“dN” in the figure) alone in 1×ThermoPol buffer (20 mM Tris-HCl, 10 mM (NH4)2SO4,10 mM KCl, 2 mM MgSO4, 0.1% Triton X-100, pH 8.8 @ 25° C.). […]
In order to determine the extent of 3′-modified nucleotide incorporation by archaeon DNA polymerases, the titration assay described by Gardner and Jack (2002) was used. […] By comparing the amount of terminator required to give the same spectrum of reaction products, the relative efficiency of incorporation of the test compounds with the different polymerases was determined. […]
Once the spectrum of termination products was determined, a comparison of the length, uniformity and clarity of these patterns was used to evaluate incorporation of the terminator. […]
The size distribution of termination products was determined by the relative rates of dNTP and terminator incorporation. […]

modified nucleotide = assay: Screen of DNA polymerase mutants for modified nucleotide incorporation
In short: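 Chain-terminator titration (Gardner and Jack 2002) compared terminator amounts giving equal product-size spectra, product size shrinking as terminator incorporation rises. Applied to purified 9° N exo- polymerase library mutants with 3′-azido-ddCTP and 3′-amino-ddCTP; incorporation rates also measured.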

3′-azido-ddCTP [2] = assay: Kinetic analysis of 3′-azido-ddCTP incorporation (primer extension, PAGE)
Description: An IR800-dye-labeled synthetic primer 5′-AGTGAATTCGAGCTCGGTACCCGGGGATCCTCTAGAGTCGACCTGCAGGC-3′ (SEQ ID NO:18) was annealed to a template 3′-TCACTTAAGCTCGAGCCATGGGCCCCTAGGAGATCTCAGCTGGACGTCCGGATCCTATACTAATCCC-5′ (SEQ ID NO:19) and used as a substrate to measure rates of 3′-azido-ddCTP incorporation. Incorporation of varying concentrations of 3′-azido-ddCTP (100, 50, 25, 12.5, 6.25, and 3.125 μM) by 9° N exo-L408S/Y409A/P410V DNA polymerase was monitored over a three-minute time course. Reaction aliquots were sampled at 10, 20, 30, 45, 60, and 180 seconds and analyzed by 20% denaturing PAGE. “S” is the unextended primer and “P” is the fully extended product corresponding to 3′-azido-ddCMP addition at the +1 position.
(§1) An IR800-dye-labeled synthetic primer 5′-AGTGAATTCGAGCTCGGTACCCGGGGATCCTCTAGAGTCGACCTGCAGGC-3′ (SEQ ID NO:18) was annealed to a template 3′-TCACTTAAGCTCGAGCCATGGGCCCCTAGGAGATCTCAGCTGGACGTCCGGATCCTATACTAATCCC-5′ (SEQ ID NO:19) and used as a substrate. Reaction aliquots were sampled at 10, 30, 60, 120 and 300 seconds and analyzed by 20% denaturing PAGE. Unextended primer (0) and fully extended product (+1) are indicated.
Linear rates of 3′-azido-ddCTP incorporation derived from these curves are 100 μM: 0.05 s^−1; 50 μM: 0.05 s^−1; 25 μM: 0.05s^−1; 12.5 μM: 0.03s^−1; 6.25 μM: 0.03s^−1; 3.125 μM: 0.02 s^−1.
An IR800-dye-labeled synthetic primer 5′-AGTGAATTCGAGCTCGGTACCCGGGGATCCTCTAGAGTCGACCTGCAGGC-3′ (SEQ ID NO:18 was annealed to a template 3′-TCACTTAAGCTCGAGCCATGGGCCCCTAGGAGATCTCAGCTGGACGTCCGGATCCTATACTAATCCC-5′ (SEQ ID NO:19) and used as a substrate to measure rates of 3′-azido-ddCTP incorporation over a three-minute time course. The results are shown in FIG. 2. Reaction aliquots were sampled at 10, 20, 30, 45, 60, and 180 seconds and analyzed by 20% denaturing PAGE where “S” indicates the unextended primer and “P” the fully extended product corresponding to 3′-azido-ddCMP addition at the +1 position(B). 9° N exo-L408S/Y409A/P410V incorporation of varying concentrations of 3′-azido-ddCTP was measured over a three-minute time course.

3′-amino-ddCTP = assay: Kinetic analysis of 3′-amino-ddCTP incorporation (primer extension, PAGE); settings: FIG. 3
From the text: as §1
Furthermore, the same assay was used to measure 3′-amino-ddCTP incorporation by 9° N exo-L408S/Y409A/P410V (FIG. 3) and to measure rates of incorporation (FIG. 4). Examples of mutants that increased modified nucleotide incorporation by at least two-fold were: […]

Row | Molecule | 3′-azido-ddCTP incorporation efficiency relative to wild-type 9° N exo-DNA polymerase (3′-azido-ddCTP [1]) | increase of modified nucleotide incorporation (modified nucleotide) | linear rate of 3′-azido-ddCTP incorporation (3′-azido-ddCTP [2]; 3.125 μM 3′-azido-ddCTP) [s⁻¹] | linear rate of 3′-azido-ddCTP incorporation (3′-azido-ddCTP [2]; 6.25 μM 3′-azido-ddCTP) [s⁻¹] | linear rate of 3′-azido-ddCTP incorporation (3′-azido-ddCTP [2]; 12.5 μM 3′-azido-ddCTP) [s⁻¹] | linear rate of 3′-azido-ddCTP incorporation (3′-azido-ddCTP [2]; 25 μM 3′-azido-ddCTP) [s⁻¹] | linear rate of 3′-azido-ddCTP incorporation (3′-azido-ddCTP [2]; 50 μM 3′-azido-ddCTP) [s⁻¹] | linear rate of 3′-azido-ddCTP incorporation (3′-azido-ddCTP [2]; 100 μM 3′-azido-ddCTP) [s⁻¹] | concentration of modified nucleotide sufficient for efficient incorporation (3′-azido-ddCTP [2]; 3′-azido-ddCTP, FIG. 3) [µM] | 3′-azido-ddCTP incorporation (3′-azido-ddCTP [2]; after three minutes) [%] | concentration of modified nucleotide sufficient for efficient incorporation (3′-amino-ddCTP) [µM]
1 | B1 | at least 2 fold | at least two-fold |  |  |  |  |  |  |  |  | 
2 | B2 |  | at least two-fold | 0.02 | 0.03 | 0.03 | 0.05 | 0.05 | 0.05 | 10 | ~100 | 10
